Test results reported in article PMC12318175.
Where two headings read alike, the source gives them in different places.

B1: Cy5-5mC8-oxoG/GC (Foxp3 CNS2) (dsDNA)
DNA 1: GCCGATGAAGCCCAATGCATCCGGCCGCCATGACGTCA
DNA 2: TGACGTCATGGCGGCCGGATGCATTGGGCTTCATCGGC
modifications: 5mC at sense C22; 8-oxoG at sense G23
B2: Cy5-WT (Foxp3 pro) (dsDNA)
DNA 1: AAGTGTGGGTATGGGAGCCAGACTGTCTGGAACAACCTA
DNA 2: TAGGTTGTTCCAGACAGTCTCGCTCCCATACCCACACTT

How the values were obtained:
GST-OGG1 [1] = molecular target: T1, GST-OGG1 (mouse, UniProt O08760 1-345); test: EMSA
T1 sequence (O08760 whole entry): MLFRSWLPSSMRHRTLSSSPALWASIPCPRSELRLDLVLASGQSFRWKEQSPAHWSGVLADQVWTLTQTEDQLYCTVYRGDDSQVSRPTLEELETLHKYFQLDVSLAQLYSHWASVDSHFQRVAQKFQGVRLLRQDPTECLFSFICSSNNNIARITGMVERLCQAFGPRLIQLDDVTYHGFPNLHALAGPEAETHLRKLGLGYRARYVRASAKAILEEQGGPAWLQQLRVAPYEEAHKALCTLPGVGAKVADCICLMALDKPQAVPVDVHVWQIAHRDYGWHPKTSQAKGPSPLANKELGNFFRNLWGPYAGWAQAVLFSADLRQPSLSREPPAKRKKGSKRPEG

GST-OGG1 [2] = molecular target: T1, GST-OGG1; test: EMSA; remark: listed apart in the source

Binder	binding result (GST-OGG1 [1])	binding result (GST-OGG1 [2])
B1	binds	–
B2	–	no binding
